Substrate in this data set: NCCCCNCCCN
Kind of data set: Inhibition of deoxyhypusine synthase ([3H]deoxyhypusine formation from [3H]spermidine), IC50/Ki. Format: biochemical, rat. To be noted: pH 9.3; 37.0 °C.

Procedure: A typical assay mixture included 0.2M glycine, 1 mM dithiothreitol, 0.5 mM NAD^+, 2.4 micromolar (μM) [1,8-^3 H] spermidine, 1 μM ec-eIF-5A(Lys), 25 micrograms (μg) bovine serum albumin, and 3-15 units of enzyme in a total volume of 20 microliters (μl). Incubations were carried out at pH 9.3 and 37° C. for 1 hour. […] Percent inhibition was plotted versus log inhibitor concentration in order to obtain graphic estimates of IC50 values, i.e., the concentrations inhibiting [^3 H]deoxyhypusine production by 50%. The IC50 values reported in the tables were calculated by fitting the data points to equation 1 where x=% inhibition and I is the inhibitor concentration. […] The nature of the inhibition was determined by plotting reciprocal velocities of [^3 H]deoxyhypusine production against reciprocals of [^3 H]spermidine concentrations at a constant fixed level of ec-eIF-5A(Lys) (1 μM) and at set inhibitor concentrations. […] Estimates of Ki values were made by fitting the data to equation 2; wherein v is the velocity of the reaction, V is the maximum velocity, S is the substrate concentration, Km is Michaeli's constant, Ki is the inhibition constant, and I is the inhibitor concentration.

B1: deoxyhypusine synthase from rat testis (Rattus norvegicus) (protein)
chain: MEGTPSGAAPSSALAAVLKHSSALPPESAQVQGYDFNRGVDYHALLEAYGTTGFQATNFGRAVQQVNAMIEKKLEPLAVDEDHHEDLTQSRRPLTGCTIFLGYTSNLISSGIRETIRYLVQHNMVDVLVTTAGGVEEDLIKCLAPTYLGEFSLRGKELRENGINRIGNLLVPNDNYCKFEDWLMPILDQMVQEQNTEGVKWTPSKMISRLGKEINNPESVYYWAHKNHIPVLSPALTDGSLGDMIFFHSYKNPGLVLDIVEDLRLINMQAIFAKRTGMIILGGGVVKHHIANANLMRNGADYAVYINTAQEFDGSDSGARPDEAVSWGKIRMDAQPVKVYADASLVFPLLVAETFAQKADAFRAEKNED
notes: as catalyzed by deoxyhypusine synthase from rat testis; from tissue; host or cells: rat testis
What is called Km is the concentration of substrate that gives half-maximal velocity. Turning to B1, the Km came out at 4.5 ± 0.7 µM.

The values above are taken from patent US5344846A, “Compositions and methods for inhibiting deoxyhypusine synthase and the growth of cells” (The United States of America as represented by the …, priority 1992, dated 1994).
